Results reported in article PMC12069617.

Legend:
[1] = target: progesterone receptor isoform A (PR-A), full-length, Strep II-tagged (human) (UniProt P06401); test: SEC-MALS
[2] = target: steroid receptor coactivator 3 (SRC3), full-length, Strep II-tagged (human) (UniProt Q9Y6Q9); test: SEC-MALS
Sequence of steroid receptor coactivator 3 (SRC3), full-length, Strep II-tagged (human) (Q9Y6Q9 whole entry): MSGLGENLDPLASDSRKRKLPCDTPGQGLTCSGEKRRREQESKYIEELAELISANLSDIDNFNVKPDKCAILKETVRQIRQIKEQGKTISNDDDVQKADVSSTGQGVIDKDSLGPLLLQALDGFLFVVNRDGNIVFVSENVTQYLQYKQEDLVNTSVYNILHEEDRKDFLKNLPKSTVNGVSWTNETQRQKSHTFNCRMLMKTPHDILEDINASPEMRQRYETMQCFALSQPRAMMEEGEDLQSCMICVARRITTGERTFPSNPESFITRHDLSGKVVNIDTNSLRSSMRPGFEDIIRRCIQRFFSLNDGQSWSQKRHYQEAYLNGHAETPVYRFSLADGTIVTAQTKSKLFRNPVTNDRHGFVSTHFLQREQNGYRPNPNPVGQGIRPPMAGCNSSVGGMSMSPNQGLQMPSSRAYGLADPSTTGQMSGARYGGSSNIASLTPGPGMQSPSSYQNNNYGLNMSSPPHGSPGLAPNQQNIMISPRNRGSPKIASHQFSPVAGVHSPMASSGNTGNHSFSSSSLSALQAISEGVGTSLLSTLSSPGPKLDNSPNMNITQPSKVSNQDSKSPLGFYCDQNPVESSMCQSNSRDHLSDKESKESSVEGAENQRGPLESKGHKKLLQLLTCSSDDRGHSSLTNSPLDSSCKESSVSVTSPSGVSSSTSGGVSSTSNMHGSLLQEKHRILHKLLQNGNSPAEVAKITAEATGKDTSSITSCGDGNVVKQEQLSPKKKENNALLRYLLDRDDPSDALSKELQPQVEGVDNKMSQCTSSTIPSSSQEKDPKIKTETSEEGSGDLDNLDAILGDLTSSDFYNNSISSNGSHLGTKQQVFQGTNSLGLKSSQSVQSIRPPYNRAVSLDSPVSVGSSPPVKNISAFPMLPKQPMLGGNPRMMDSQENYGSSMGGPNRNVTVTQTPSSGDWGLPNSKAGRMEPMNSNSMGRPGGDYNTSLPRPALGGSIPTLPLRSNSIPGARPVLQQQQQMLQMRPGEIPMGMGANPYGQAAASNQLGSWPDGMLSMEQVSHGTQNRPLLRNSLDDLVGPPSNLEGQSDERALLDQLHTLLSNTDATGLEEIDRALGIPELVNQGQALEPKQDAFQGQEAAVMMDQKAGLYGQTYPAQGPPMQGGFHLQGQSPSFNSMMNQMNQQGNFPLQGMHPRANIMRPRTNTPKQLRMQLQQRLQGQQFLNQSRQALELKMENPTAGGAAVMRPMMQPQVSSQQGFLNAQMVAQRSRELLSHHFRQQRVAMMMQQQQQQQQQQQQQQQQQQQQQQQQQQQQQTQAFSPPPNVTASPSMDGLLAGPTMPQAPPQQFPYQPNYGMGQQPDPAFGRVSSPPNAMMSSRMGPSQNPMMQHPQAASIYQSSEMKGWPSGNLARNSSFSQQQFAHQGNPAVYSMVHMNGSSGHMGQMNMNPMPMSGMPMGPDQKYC

Sequence of progesterone receptor isoform A (PR-A), full-length, Strep II-tagged (human) (P06401 165-933): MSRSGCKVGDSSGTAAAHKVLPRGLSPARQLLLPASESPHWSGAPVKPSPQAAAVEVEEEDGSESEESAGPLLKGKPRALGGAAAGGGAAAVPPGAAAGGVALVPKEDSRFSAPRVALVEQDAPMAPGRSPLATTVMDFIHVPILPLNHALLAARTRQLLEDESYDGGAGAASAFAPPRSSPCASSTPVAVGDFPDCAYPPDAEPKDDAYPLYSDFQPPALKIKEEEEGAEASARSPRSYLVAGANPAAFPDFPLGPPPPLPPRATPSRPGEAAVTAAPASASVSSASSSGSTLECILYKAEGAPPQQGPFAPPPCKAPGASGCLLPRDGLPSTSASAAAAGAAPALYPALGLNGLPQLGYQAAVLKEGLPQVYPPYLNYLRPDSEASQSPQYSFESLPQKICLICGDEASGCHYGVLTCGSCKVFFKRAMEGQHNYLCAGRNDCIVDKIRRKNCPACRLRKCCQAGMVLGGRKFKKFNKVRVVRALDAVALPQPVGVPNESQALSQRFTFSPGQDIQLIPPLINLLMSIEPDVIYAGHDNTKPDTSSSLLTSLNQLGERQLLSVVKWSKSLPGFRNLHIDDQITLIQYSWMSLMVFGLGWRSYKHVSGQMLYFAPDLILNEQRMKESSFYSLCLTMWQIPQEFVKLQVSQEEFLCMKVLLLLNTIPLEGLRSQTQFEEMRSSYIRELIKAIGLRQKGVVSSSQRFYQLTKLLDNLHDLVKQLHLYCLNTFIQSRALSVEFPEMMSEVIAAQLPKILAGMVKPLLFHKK

- stoichiometry N [1]: 0.5 p300 per PR
- stoichiometry N (p300 per SRC3) [2]: 1
Substance: histone acetyltransferase p300, full-length, Strep II-tagged, Q09472 1-2414
